# Results from patent US20250026850A1 (TRISHULA THERAPEUTICS, published 2025).
# Positions count from the first letter of the chain named.
# T1: cynomolgus macaque (Macaca fascicularis) CD39 on cells (cynomolgus macaque (Macaca fascicularis), UniProt P49961 7-510 (human entry))
# T1 construct: CHO cells engineered to express cyno CD39, or primary cyno B cells and monocytes; also called cyno CD39; cCD39
# T1 chain: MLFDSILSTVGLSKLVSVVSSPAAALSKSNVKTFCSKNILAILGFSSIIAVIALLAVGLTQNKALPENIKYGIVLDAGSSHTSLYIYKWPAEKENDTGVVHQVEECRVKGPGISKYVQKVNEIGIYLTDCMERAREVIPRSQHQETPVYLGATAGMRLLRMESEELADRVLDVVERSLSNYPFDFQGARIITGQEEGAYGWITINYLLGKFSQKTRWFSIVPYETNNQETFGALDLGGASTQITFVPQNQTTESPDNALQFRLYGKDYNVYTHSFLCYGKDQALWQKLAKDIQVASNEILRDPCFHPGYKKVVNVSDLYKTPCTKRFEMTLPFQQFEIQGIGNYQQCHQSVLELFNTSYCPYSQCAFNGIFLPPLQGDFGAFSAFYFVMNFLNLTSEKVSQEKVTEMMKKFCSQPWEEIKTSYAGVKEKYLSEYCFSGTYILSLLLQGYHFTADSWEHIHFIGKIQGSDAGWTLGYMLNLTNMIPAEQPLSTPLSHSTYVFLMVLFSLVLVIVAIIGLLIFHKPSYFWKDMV
# T2: human CD39 on cells (human, UniProt P49961 1-510)
# T2 construct: One molecule for all cells that carry human CD39; the cell is named under assay; also called hCD39; cellular CD39
# T2 sequence: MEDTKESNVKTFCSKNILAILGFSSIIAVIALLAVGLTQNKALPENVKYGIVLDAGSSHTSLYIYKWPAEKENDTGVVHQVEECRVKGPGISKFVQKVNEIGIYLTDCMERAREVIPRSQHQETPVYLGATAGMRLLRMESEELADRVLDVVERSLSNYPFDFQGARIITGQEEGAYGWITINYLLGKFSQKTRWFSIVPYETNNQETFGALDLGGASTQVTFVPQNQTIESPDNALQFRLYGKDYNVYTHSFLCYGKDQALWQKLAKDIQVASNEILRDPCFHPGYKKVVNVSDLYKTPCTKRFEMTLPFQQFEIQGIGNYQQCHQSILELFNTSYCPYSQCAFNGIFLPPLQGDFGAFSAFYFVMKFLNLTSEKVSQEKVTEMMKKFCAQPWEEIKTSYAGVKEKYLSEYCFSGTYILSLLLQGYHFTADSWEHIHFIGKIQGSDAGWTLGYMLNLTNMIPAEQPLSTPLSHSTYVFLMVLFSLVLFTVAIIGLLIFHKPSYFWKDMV
# T3: rhCD39-ECD-His (R&D Systems) (human, UniProt P49961 38-478)
# T3 construct: Bought protein; that entry runs on through the C-terminal transmembrane and cytoplasmic residues; also called recombinant human CD39 extracellular domain; soluble recombinant human CD39 (ENTDP1) ECD; not shown: His tag
# T3 sequence: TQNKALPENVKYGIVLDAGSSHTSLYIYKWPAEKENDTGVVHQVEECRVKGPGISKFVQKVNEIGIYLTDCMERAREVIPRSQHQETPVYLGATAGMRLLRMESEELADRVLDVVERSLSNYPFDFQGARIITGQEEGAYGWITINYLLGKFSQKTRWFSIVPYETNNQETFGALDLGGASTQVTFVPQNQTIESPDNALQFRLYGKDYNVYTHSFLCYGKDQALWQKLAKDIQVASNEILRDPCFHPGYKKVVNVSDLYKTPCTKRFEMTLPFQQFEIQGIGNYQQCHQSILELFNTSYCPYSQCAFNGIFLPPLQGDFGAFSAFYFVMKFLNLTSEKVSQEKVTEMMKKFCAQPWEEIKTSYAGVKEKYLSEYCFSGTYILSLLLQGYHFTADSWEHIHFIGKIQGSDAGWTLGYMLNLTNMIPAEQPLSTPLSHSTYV
# B1: 31901 (antibody, V domains shown)
# VH: QVQLVQSGAEVKKPGSSVKVSCKASGGTFSSLPISWVRQAPGQGLEWMGGIGFGTANYAQKFQGRVTITADESTSTAYMELSSLRSEDTAVYYCARGGAKYAGRYGMDVWGQGTTVTVSS
# VL: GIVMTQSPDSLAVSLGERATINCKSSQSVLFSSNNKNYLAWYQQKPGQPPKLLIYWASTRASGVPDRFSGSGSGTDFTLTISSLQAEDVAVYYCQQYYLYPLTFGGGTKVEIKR
# B2: 31905 (antibody, V domains shown)
# VH: B1 VH with S30P, L32N, P33A, G103R, R104T
# VL: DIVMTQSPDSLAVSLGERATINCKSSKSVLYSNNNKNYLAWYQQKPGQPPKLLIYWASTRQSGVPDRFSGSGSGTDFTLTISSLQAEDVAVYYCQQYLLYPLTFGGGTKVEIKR
# B3: 31437 (antibody, V domains shown)
# VH: QVQLVQSGAEVKKPGASVKVSCKASGGTFQSLAISWVRQAPGQGLEWMGGILPIGGTANYAQKFQGRVTITADESTSTAYMELSSLRSEDTAVYYCARGGAKYAGRYGMDVWGQGTTVTVSS
# VL: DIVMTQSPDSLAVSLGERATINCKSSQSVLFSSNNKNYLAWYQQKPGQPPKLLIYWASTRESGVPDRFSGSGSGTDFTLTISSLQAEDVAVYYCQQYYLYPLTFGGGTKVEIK
# B4: 31436 (antibody, V domains shown)
# VH: B3 VH with A16S, Q30S, S31L, G55A, G105V, R106G
# VL: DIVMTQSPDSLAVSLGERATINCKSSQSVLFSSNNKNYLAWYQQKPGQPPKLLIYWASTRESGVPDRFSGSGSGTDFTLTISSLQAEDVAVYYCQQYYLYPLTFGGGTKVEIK
# B5: 31393 (antibody, V domains shown)
# VH: QVQLVQSGAEVKKPGSSVKVSCKASGGTFESYGISWVRQAPGQGLEWMGSIIPEFGIANYAQKFQGRVTITADESTSTTYMELSSLRSEDTAVYYCARESGGYRDHRLDVWGQGTMVTVSS
# VL: EIVMTQSPATLSVSPGERATLSCRASQSVGSNLAWYQQKPGQAPRLLIYGASTRATGIPARFSGSGSGTEFTLTISSLQSEDFAVYYCQQYLLWPLTFGGGTKVEIKR
# B6: 31861 (antibody, V domains shown)
# VH: B5 VH with E30G, T79A, G102T
# VL: B5 VL
# B7: 31873 (antibody, V domains shown)
# VH: B5 VH with E30S, S31K, T79A, D109G
# VL: B5 VL with T56S
# Target: T1, cynomolgus macaque (Macaca …)
# Assay: flow cytometry on cyno PBMC, gated B cells, anti-human IgG PE, Prism fit; unit from the x axis
# Procedure: (§1) EC50 was calculated using GrapPad Prism software. […] B cells were gated using FlowJo software and ECsos were calculated using GraphPad Prism.
# (§2) B cells were isolated from human donor leukopak using EasySep B cell isolation kit ([…] Technologies). Cyno monocytes were purified from fresh cyno blood using NHP CD14 positive selection kit (Miltenyi) and flow through was collected and stained with CD4, CD8, CD20, CD16, and CD3 antibodies (BD). […] Cell were washed 3 times in FACS buffer (PS, 2% FBS, and 2 mM EDTA) and incubated with secondary antibody (mouse anti-human IgG southern biotech) at 1:100 for 30 minutes at 4 degrees C. Cells were washed 2 times in FACS buffer and resuspended in FACS buffer and analyzed on BD Celesta.
row,Binder,EC50
1,B1,0.124 µg/mL
2,B2,0.124 µg/mL
3,B3,0.108 µg/mL

# Target: T2, human CD39 on cells
# Assay: flow cytometry, 100 nM IgG, hCD39-CHO cells; MFI ratio to parental CHO
# Procedure: (§3) 100 nanomolar IgGs (each antibody is indicated as a unique clone number in the FIG.) were incubated at […] 30 minutes on ice in phosphate buffered saline (PBS) with parental CHO cells or CHO cells engineered to express either human or cynomolgus macaque (Macaca fascicularis) CD39 (CHO CD39 cells). Cells were then washed with ice cold PBS and incubated with a fluorescently labeled goat-anti-human IgG for 20 minutes on ice. Cells were washed and resuspended in ice cold PBS prior to analysis by flow cytrometry.
row,Binder,Cell Binding (FOB)
1,B1,1110 FOB
2,B2,1080 FOB
3,B4,1320 FOB
4,B3,1290 FOB
5,B5,1060 FOB
6,B6,1430 FOB
7,B7,1320 FOB

# Target: T1, cynomolgus macaque (Macaca …)
# Assay: flow cytometry, 100 nM IgG, cCD39-CHO cells; MFI ratio to parental CHO
# Procedure: as §3
row,Binder,Cell Binding (FOB)
1,B1,4660 FOB
2,B2,4940 FOB
3,B4,3570 FOB
4,B3,3640 FOB
5,B5,2960 FOB
6,B6,5480 FOB
7,B7,5080 FOB

# Target: T3, rhCD39-ECD-His (R&D Systems)
# Assay: BLI (Octet), IgG on anti-human Fc sensor, rhCD39-ECD-His 10-300 nM, 1:1 fit
# Procedure: The kinetic data was globally fit with a simple 1:1 Langmuir binding model to yield on-rate (kon) and off-rate (koff) values. The equilibrium dissociation constants (KD) were calculated from the kon and koff values.
# Binding kinetics were measured using the Octet Red96 system (ForteBio) at 25° C. in running buffer (1× Pall ForteBio Kinetics Buffer diluted into PBS or Tris pH 7.4). […] After a short baseline step in running buffer, the sensors were exposed to varying concentrations (10-300 nM) of rhCD39-ECD-His (R&D Systems) for the association step. Dissociation of the complex was monitored upon exposure of the sensors to running buffer once again. Data was processed using ForteBio Octet software with baseline subtraction, global fit and 1:1 binding model to obtain association and dissociation rates. KD was calculated from the ratio of kd to kₐ.
Binder,Kd,koff,kon
B1,0.128 nM,0.000132 s⁻¹,1.03e+06 M⁻¹ s⁻¹
B2,0.0731 nM,0.000111 s⁻¹,1.52e+06 M⁻¹ s⁻¹
B4,0.924 nM,0.000243 s⁻¹,263000 M⁻¹ s⁻¹
B3,0.558 nM,0.000213 s⁻¹,382000 M⁻¹ s⁻¹
B5,0.672 nM,0.0002 s⁻¹,298000 M⁻¹ s⁻¹
B6,1.16 nM,0.000286 s⁻¹,246000 M⁻¹ s⁻¹
B7,0.922 nM,0.000286 s⁻¹,311000 M⁻¹ s⁻¹

# Target: T2, human CD39 on cells
# Assay: flow cytometry on MEL-28 cells, anti-human IgG secondary, Prism fit; unit from the x axis
# Procedure: (§4) Cells were washed 3 times in FACS buffer (PS, 2% FBS, and 2 mM EDTA) and next incubated with secondary antibody (goat anti-human IgG Southern Biotech) at 1:100 for 30 minutes at 4 degrees C. Cells were washed, resuspended in FACS buffer, and analyzed for binding by flow cytometry analysis on BD Celesta.
row,Binder,EC50
1,B1,0.102 µg/mL
2,B2,0.159 µg/mL
3,B3,0.368 µg/mL

# Target: T2, human CD39 on cells
# Assay: flow cytometry on purified human CD4+CD25+CD127dim Treg cells, anti-human IgG secondary, Prism fit; unit from the x axis
# Procedure: Treg cells were isolated from human donor leukopak using CD4⁺CD25⁺CD127^dim regulatory T cell isolation kit II (Miltenyi). […] Cell were washed 3 times in FACS buffer (PS, 2% FBS, and 2 mM EDTA) and incubated with secondary antibody (mouse anti-human IgG southern biotech) at 1:100 for 30 minutes at 4 degrees C. Cells were washed 2 times in FACS buffer, resuspended in FACS buffer and analyzed on BD Fortessa.
row,Binder,EC50
1,B1,0.519 nM
2,B2,0.735 nM

# Target: T2, human CD39 on cells
# Assay: flow cytometry on purified human B cells, anti-human IgG-PE, Prism fit; unit from the x axis
# Procedure: as §1, §2
row,Binder,EC50
1,B1,0.0438 µg/mL
2,B2,0.0805 µg/mL
3,B3,0.109 µg/mL

# Target: T2, human CD39 on cells
# Assay: flow cytometry on 721 cells, anti-human IgG secondary, Prism fit; unit from the x axis
# Procedure: as §4
row,Binder,EC50
1,B1,0.851 µg/mL
2,B2,2.63 µg/mL
3,B3,7.46 µg/mL
